Test results published in article PMC6143741.

How the values were obtained:
Assay in all cases: MYTH quantitative β-Gal activity assay
[1] = target: TbMCUc without the mitochondrial targeting signal, MYTH bait or prey; settings: n = 3; 8 colonies for each independent experiment; parent: est. 140; read off a plot
[2] = target: TbMCUd without the mitochondrial targeting signal, MYTH bait or prey; settings: n = 3; 8 colonies for each independent experiment; parent: est. 120; read off a plot
[3] = target: TbMCUdΔ4; settings: n = 3; 8 colonies were used in each independent experiment; read off a plot
[4] = target: TbMCUcΔ2; settings: n = 3; 8 colonies were used in each independent experiment; read off a plot
[5] = target: TbMCUcΔ3; settings: n = 3; 8 colonies were used in each independent experiment; read off a plot
[6] = target: TbMCUdΔ2; settings: n = 3; 8 colonies were used in each independent experiment; read off a plot
[7] = target: TbMCUdΔ3; settings: n = 3; 8 colonies were used in each independent experiment; read off a plot
[8] = target: TbMCUcΔ4; settings: n = 3; 8 colonies were used in each independent experiment; read off a plot

Substance: TbMCU without the mitochondrial targeting signal, MYTH bait or prey TMH2 replaced by WALP (…)
- response [1]: 50 units
- response [2]: 45 units

Substance: TbMCUd without the mitochondrial targeting signal, MYTH bait or prey MCUdΔ4: TMH1 and TMH2 each replaced by WALP (…), in bait and prey
- response [3]: 15 units

Substance: TbMCUc without the mitochondrial targeting signal, MYTH bait or prey MCUcΔ2: TMH1 replaced by WALP (…), in bait and prey
- response [4]: 85 units

Substance: TbMCUc without the mitochondrial targeting signal, MYTH bait or prey MCUcΔ3: TMH2 replaced by WALP (…), in bait and prey
- response [5]: 55 units

Substance: TbMCU without the mitochondrial targeting signal, MYTH bait or prey Q213A; V216F; I217F; F222A
- response [1]: 100 units
- response [2]: 88 units

Substance: TbMCUd without the mitochondrial targeting signal, MYTH bait or prey MCUdΔ2: TMH1 replaced by WALP (…), in bait and prey
- response [6]: 70 units

Substance: TbMCUd without the mitochondrial targeting signal, MYTH bait or prey MCUdΔ3: TMH2 replaced by WALP (…), in bait and prey
- response [7]: 52 units

Substance: TbMCU without the mitochondrial targeting signal, MYTH bait or prey Y235A; F236A; T241E; Y248A
- response [1]: 65 units
- response [2]: 58 units

Substance: TbMCUc without the mitochondrial targeting signal, MYTH bait or prey MCUcΔ4: TMH1 and TMH2 each replaced by WALP (…), in bait and prey
- response [8]: 20 units

Substance: TbMCU without the mitochondrial targeting signal, MYTH bait or prey TMH1 replaced by WALP (…)
- response [1]: 82 units
- response [2]: 78 units

Substance: TbMCU without the mitochondrial targeting signal, MYTH bait or prey TMH1 and TMH2 each replaced by WALP (…)
- response [1]: 15 units
- response [2]: 12 units
